How the values were obtained:
[1] = biological target: recombinant human FcγRI (human) (UniProt P12314); test: ELISA, antibody coated on the plate, soluble FcγRI titrated (the axis is its concentration), anti-CD64 and HRP anti-mouse IgG, A450
[2] = biological target: recombinant human CD40L (BioLegend Cat. #591706) (human) (UniProt P29965); test: ELISA on coated rh CD40L; IC50 clone/IC50 5c8 x100
Chain of UniProt P29965 (P29965 113-261 limits assumed): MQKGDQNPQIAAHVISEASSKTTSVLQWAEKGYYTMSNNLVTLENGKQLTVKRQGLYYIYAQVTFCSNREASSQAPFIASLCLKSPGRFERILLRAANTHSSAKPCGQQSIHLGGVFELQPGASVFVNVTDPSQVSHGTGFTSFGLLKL

Chain of UniProt P12314 (P12314 16-288 limits assumed): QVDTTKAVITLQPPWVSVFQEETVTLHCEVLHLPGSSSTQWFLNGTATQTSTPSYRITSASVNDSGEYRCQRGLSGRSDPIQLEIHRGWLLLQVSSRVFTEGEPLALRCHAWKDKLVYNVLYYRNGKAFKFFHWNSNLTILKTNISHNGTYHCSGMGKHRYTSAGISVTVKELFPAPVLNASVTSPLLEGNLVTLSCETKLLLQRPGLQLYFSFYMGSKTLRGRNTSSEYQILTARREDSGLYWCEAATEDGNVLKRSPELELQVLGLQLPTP

| EC50 (read off the curve) [1] [µg/mL] | Rel. Pot. [2] [%] | Substance |
| --- | --- | --- |
| 0.2 | – | anti-CD40L antibody 5c8 |
| – | 95 | anti-CD40L antibody AT-1501 |

Source: US20200223932A1
